*1 amine or outer side, *2 acyl side, *3 side chain or, on linkers, in order; H or OH if unused. Where a SMILES comes first, the peptide text is derived from it. Where no end group is shown, it is not given here. [ ]: non-standard residue; d: D form. The star is where a group is joined. Succinyl(4-O-cholesteryl) = CC(C)CCC[C@@H](C)[C@H]1CC[C@H]2[C@@H]3CC=C4C[C@@H](OC(=O)CCC(=O)*)CC[C@]4(C)[C@H]3CC[C@]12C; MetSta(3S,4S) = CSCC[C@H](N[*:1])[C@@H](O)CC(=O)[*:2]; Sta = CC(C)C[C@H](N)[C@@H](O)CC(=O)O; PEG4 = NCCOCCOCCOCCOCCC(=O)O; PEG3 = NCCOCCOCCOCCC(=O)O; Ava = NCCCCC(=O)O; βAla = NCCC(=O)O
B1: Tyr-Pro-Lys-Phe-Ile-Pro-Leu-Gly-DLys-Gly-Glu-Val-Asn-Leu*Ala-Ala-Glu-DPro-Lys(Chol'ester')-NH2 x 3TFA (peptide)
peptide: YPKFIPLG[dK]GEVNLAAE[dP]K(Chol'ester')-NH2
modifications: also: Leu14*Ala15 Tang hydroxyethylene dipeptide isostere, trifluoroacetate salt (x 3TFA)

molecular target: T1, BACE1 (Homo sapiens, UniProt P56817); experiment: Cellular Aβ-lowering assay (Aβ40 ELISA of culture supernatant); format: cell-based; settings: not given
T1 construct: Human HEK293 cells which are stably transfected with a vector expressing a cDNA of the human APP wt gene (APP695); endogenous in cells; host or cells: HEK293 (human), stably transfected with human APP695 wt
T1 sequence (P56817 46-501): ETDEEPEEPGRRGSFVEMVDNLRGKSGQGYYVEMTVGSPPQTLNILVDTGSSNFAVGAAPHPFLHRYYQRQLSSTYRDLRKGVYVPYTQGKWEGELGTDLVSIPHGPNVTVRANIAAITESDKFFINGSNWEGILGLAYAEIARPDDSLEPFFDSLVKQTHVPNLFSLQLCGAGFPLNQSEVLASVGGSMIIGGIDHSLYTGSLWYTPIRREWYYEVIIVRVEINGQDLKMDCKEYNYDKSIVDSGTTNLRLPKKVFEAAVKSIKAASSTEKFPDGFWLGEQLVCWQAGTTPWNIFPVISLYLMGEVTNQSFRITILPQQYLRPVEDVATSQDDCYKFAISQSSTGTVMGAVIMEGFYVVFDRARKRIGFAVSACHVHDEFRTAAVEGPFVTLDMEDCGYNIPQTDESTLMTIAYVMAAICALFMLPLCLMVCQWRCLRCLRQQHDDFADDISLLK
Procedure: The compounds were investigated in accordance with the test given hereinafter.
Cellular Aβ-Lowering Assay:
Human HEK293 cells which are stably transfected with a vector expressing a cDNA of the human APP wt gene (APP695) were used to assess the potency of the compounds in a cellular assay. The cells were seeded in 96-well microtiter plates in cell culture medium (Iscove, plus 10% (v/v) fetal bovine serum, glutamine, penicillin/streptomycin) to about 80% confluence and the compounds were added at a 10× concentration in 1/10 volume of medium without FCS containing 8% DMSO (final concentration of DMSO was kept at 0.8% v/v). After 18-20 hrs incubation at 37° C. and 5% CO2 in a humidified incubator the culture supernatant was harvested for the determination of Aβ40 concentrations. 96 well ELISA plates (e.g., Nunc MaxiSorb) were coated with monoclonal antibody which specifically recognize the C-terminal end of Aβ40 (Brockhaus et al., NeuroReport 9; 1481-1486; 1998). After blocking of non-specific binding sites with e.g. 1% BSA and washing, the culture supernatants were added in suitable dilutions together with a horseradish peroxidase-coupled Aβ detection antibody (e.g., antibody 4G8, Senetek, Maryland Heights, Mo.) and incubated for 5 to 7 hrs. Subsequently the wells of the microtiter plate were washed extensively with Tris-buffered saline containing 0.05% Tween 20 and the assay was developed with tetramethylbenzidine/H2O2 in citric acid buffer. After stopping the reaction with one volume 1 N H2SO4 the reaction was measured in an ELISA reader at 450 nm wavelength. The concentrations of Aβ in the culture supernatants were calculated from a standard curve obtained with known amounts of pure Aβ peptide.

Question: Which IC50 does the source give for CC[C@H](C)[C@H](NC(=O)[C@H](Cc1ccccc1)NC(=O)[C@H](Cc1ccc(O)cc1)NC(=O)[C@@H]1CCCN1C(=O)[C@@H](N)Cc1ccc(O)cc1)C(=O)N1CCC[C@H]1C(=O)N[C@@H](CC(C)C)C(=O)NCC(=O)NCC(=O)NCC(=O)N[C@@H](CCC(=O)O)C(=O)N[C@H](C(=O)N[C@@H](CC(N)=O)C(=O)N[C@@H](CC(C)C)[C@@H](O)CC(=O)N[C@H](C(=O)N[C@@H](C)C(=O)N[C@@H](CCC(=O)O)C(=O)N1CCC[C@@H]1C(=O)N[C@@H](CCCCNC(=O)CCC(=O)O[C@H]1CC[C@@]2(C)C(=CC[C@H]3[C@@H]4CC[C@H]([C@H](C)CCCC(C)C)[C@@]4(C)CC[C@@H]32)C1)C(N)=O)C(C)C)C(C)C [Example 2, Tyr-Pro-Tyr-Phe-Ile-Pro-Leu-Gly-Gly-Gly-Glu-Val-Asn-Sta-Val-Ala-Glu-DPro-Lys(Chol)-NH2] here?
Answer: 0.027 nM

same assay, conditions: Aβ40 in supernatant of human HEK293 cells stably transfected with human APP wt (APP695); 18-20 hrs incubation; read-out: IC 50

Question: CC[C@H](C)[C@H](NC(=O)[C@H](Cc1ccccc1)NC(=O)[C@H](Cc1ccc(O)cc1)NC(=O)[C@@H]1CCCN1C(=O)[C@@H](N)Cc1ccc(O)cc1)C(=O)N1CCC[C@H]1C(=O)N[C@@H](CC(C)C)C(=O)NCCOCCOCCOCCC(=O)N[C@@H](CCC(=O)O)C(=O)N[C@H](C(=O)N[C@@H](CC(N)=O)C(=O)N[C@@H](CC(C)C)[C@@H](O)CC(=O)N[C@H](C(=O)N[C@@H](C)C(=O)N[C@@H](CCC(=O)O)C(=O)N1CCC[C@@H]1C(=O)N[C@@H](CCCCNC(=O)CCC(=O)O[C@H]1CC[C@@]2(C)C(=CC[C@H]3[C@@H]4CC[C@H]([C@H](C)CCCC(C)C)[C@@]4(C)CC[C@@H]32)C1)C(N)=O)C(C)C)C(C)C [Example 13, Tyr-Pro-Tyr-Phe-Ile-Pro-Leu-PEG(3)-Glu-Val-Asn-Sta-Val-Ala-Glu-DPro-Lys(Chol)-NH2] (H-YPYFIPL[PEG3]EVN[Sta]VAE[dP]K(Succinyl(4-O-cholesteryl))-NH2) was tested. Which IC50 did it give?
Answer: 0.043 nM

Question: How did the IC50 turn out when CC[C@H](C)[C@H](NC(=O)[C@H](Cc1ccccc1)NC(=O)[C@H](Cc1ccc(O)cc1)NC(=O)[C@@H]1CCCN1C(=O)[C@@H](N)Cc1ccc(O)cc1)C(=O)N1CCC[C@H]1C(=O)N[C@@H](CC(C)C)C(=O)NCCOCCOCCOCCOCCC(=O)N[C@@H](CCC(=O)O)C(=O)N[C@H](C(=O)N[C@@H](CC(N)=O)C(=O)N[C@@H](CC(C)C)[C@@H](O)CC(=O)N[C@H](C(=O)N[C@@H](C)C(=O)N[C@@H](CCC(=O)O)C(=O)N1CCC[C@@H]1C(=O)N[C@@H](CCCCNC(=O)CCC(=O)O[C@H]1CC[C@@]2(C)C(=CC[C@H]3[C@@H]4CC[C@H]([C@H](C)CCCC(C)C)[C@@]4(C)CC[C@@H]32)C1)C(N)=O)C(C)C)C(C)C [Example 14, Tyr-Pro-Tyr-Phe-Ile-Pro-Leu-PEG(4)-Glu-Val-Asn-Sta-Val-Ala-Glu-DPro-Lys(Chol)-NH2] (H-YPYFIPL[PEG4]EVN[Sta]VAE[dP]K(Succinyl(4-O-cholesteryl))-NH2) was run?
Answer: 0.027 nM

Question: How did the IC50 turn out when CC[C@H](C)[C@H](NC(=O)[C@H](Cc1ccccc1)NC(=O)[C@H](Cc1ccc(O)cc1)NC(=O)[C@@H]1CCCN1C(=O)[C@@H](N)Cc1ccc(O)cc1)C(=O)N1CCC[C@H]1C(=O)N[C@@H](CC(C)C)C(=O)NCC(=O)NCC(=O)NCC(=O)NCC(=O)N[C@@H](CCC(=O)O)C(=O)N[C@H](C(=O)N[C@@H](CC(N)=O)C(=O)N[C@@H](CCSC)[C@@H](O)CC(=O)N[C@H](C(=O)N[C@@H](C)C(=O)N[C@@H](CCC(=O)O)C(=O)N[C@H](Cc1ccccc1)C(=O)N[C@@H](CCCCNC(=O)CCC(=O)O[C@H]1CC[C@@]2(C)C(=CC[C@H]3[C@@H]4CC[C@H]([C@H](C)CCCC(C)C)[C@@]4(C)CC[C@@H]32)C1)C(N)=O)C(C)C)C(C)C [Example 24, Tyr-Pro-Tyr-Phe-Ile-Pro-Leu-Gly-Gly-Gly-Gly-Glu-Val-Asn-MetSta-Val-Ala-Glu-DPhe-Lys(Chol)-NH2] was run?
Answer: 0.052 nM

molecular target: BACE1 enzyme (UniProt P56817 46-501, limits assumed); experiment: cell-based or functional assay; settings: not given
Sequence (P56817 46-501 limits assumed): as the sequence (P56817 46-501) above

Question: How did the “IC50, cellular Aβ-lowering assay (Aβ40 in supernatant of HEK293 cells expressing human APP695)” value (“IC50, cellular Aβ-lowering assay” below) turn out when YPYFIPKG[dK]GEVN[Sta]VAE[dP]K(Chol'ester')-NH2 (also: 3TFA salt) was run?
Answer: 0.012 nM

Question: With YPYFIPLGGGGEVN[Sta]VAE[dP]K(Chol)-NH2 (also: TFA salt) [Tyr-Pro-Tyr-Phe-Ile-Pro-Leu-Gly-Gly-Gly-Gly-Glu-Val-Asn-Sta-Val-Ala-Glu-DPro-Lys(Chol)-NH2 x TFA] as the molecule, how does the “IC50, cellular Aβ-lowering assay” value read?
Answer: 0.042 nM

Question: With YPYFIPL[dA]GGEVN[Sta]VAE[dP]K(Chol'ester')-NH2 (also: x TFA salt) [Tyr-Pro-Tyr-Phe-Ile-Pro-Leu-DAla-Gly-Gly-Glu-Val-Asn-Sta-Val-Ala-Glu-DPro-Lys(Chol'ester')-NH2 x TFA] as the molecule, how does the “IC50, cellular Aβ-lowering assay” value read?
Answer: 0.055 nM

Question: For YPYFIPLG[dA]GEVN[Sta]VAE[dP]K(Chol'ester')-NH2 (also: x TFA salt) [Tyr-Pro-Tyr-Phe-Ile-Pro-Leu-Gly-DAla-Gly-Glu-Val-Asn-Sta-Val-Ala-Glu-DPro-Lys(Chol'ester')-NH2 x TFA], which “IC50, cellular Aβ-lowering assay” value is on record?
Answer: 0.02 nM

Question: YPYFIPLSGGEVN[Sta]VAE[dP]K(Chol'ester')-NH2 (also: TFA salt) [Tyr-Pro-Tyr-Phe-Ile-Pro-Leu-Ser-Gly-Gly-Glu-Val-Asn-Sta-Val-Ala-Glu-DPro-Lys(Chol'ester')-NH2 x TFA] was tested. Which “IC50, cellular Aβ-lowering assay” value did it give?
Answer: 0.052 nM

Question: Which “IC50, cellular Aβ-lowering assay” value does the source give for [dK]PYFIPLG[dK]GEVN[Sta]VAE[dP]K(Chol'ester')-NH2 (also: x 3TFA salt) here?
Answer: 0.013 nM

Question: Which “IC50, cellular Aβ-lowering assay” value does the source give for Y[dK]YFIPLG[dK]GEVN[Sta]VAE[dP]K(Chol'ester')-NH2 (also: x 3TFA salt) here?
Answer: 3.4 nM

Question: YP[dK]FIPLG[dK]GEVN[Sta]VAE[dP]K(Chol'ester')-NH2 (also: x 3TFA salt) was tested. Which “IC50, cellular Aβ-lowering assay” value did it give?
Answer: 0.78 nM

Question: For YPY[dK]IPLG[dK]GEVN[Sta]VAE[dP]K(Chol'ester')-NH2 (also: x 3TFA salt), which “IC50, cellular Aβ-lowering assay” value is on record?
Answer: 6.5 nM

Question: How did the “IC50, cellular Aβ-lowering assay” value turn out when YPYF[dK]PLG[dK]GEVN[Sta]VAE[dP]K(Chol'ester')-NH2 (also: x 3TFA salt) was run?
Answer: 7.6 nM

Question: YPYFI[dK]LG[dK]GEVN[Sta]VAE[dP]K(Chol'ester')-NH2 (also: x 3TFA salt) was tested. Which “IC50, cellular Aβ-lowering assay” value did it give?
Answer: 0.45 nM

Question: For YPYFIP[dK]G[dK]GEVN[Sta]VAE[dP]K(Chol'ester')-NH2 (also: x 3TFA salt), which “IC50, cellular Aβ-lowering assay” value is on record?
Answer: 0.0059 nM

Question: With YPYFIPLGGGGEVN[Sta]DAE[dP]K(Chol)-NH2 (also: x TFA salt) [Tyr-Pro-Tyr-Phe-Ile-Pro-Leu-Gly-Gly-Gly-Gly-Glu-Val-Asn-Sta-Asp-Ala-Glu-DPro-Lys(Chol)-NH2 x TFA] as the molecule, how does the “IC50, cellular Aβ-lowering assay” value read?
Answer: 3.3 nM

Question: YPKFIPLG[dK]GEVN[MetSta(3S,4S)]VAEPK(Chol'ester')-NH2 (also: x 3TFA salt) was tested. Which “IC50, cellular Aβ-lowering assay” value did it give?
Answer: 0.061 nM

Question: Which “IC50, cellular Aβ-lowering assay” value does the source give for B1 here?
Answer: 0.039 nM

Question: How did the “IC50, cellular Aβ-lowering assay” value turn out when YPYFIPLGGGGGEVN[Sta]VAE[dP]K(Chol)-NH2 (also: TFA salt) [Tyr-Pro-Tyr-Phe-Ile-Pro-Leu-Gly-Gly-Gly-Gly-Gly-Glu-Val-Asn-Sta-Val-Ala-Glu-DPro-Lys(Chol)-NH2 x TFA] was run?
Answer: 0.044 nM

Question: For YPYFIPL[βAla]EVN[Sta]VAE[dP]K(Chol)-NH2 (also: TFA salt) [Tyr-Pro-Tyr-Phe-Ile-Pro-Leu-NH(CH2)2CO-Glu-Val-Asn-Sta-Val-Ala-Glu-DPro-Lys(Chol)-NH2 x TFA], which “IC50, cellular Aβ-lowering assay” value is on record?
Answer: 2.8 nM

Question: YPYFIPL[Ava]EVN[Sta]VAE[dP]K(Chol)-NH2 (also: TFA salt) [Tyr-Pro-Tyr-Phe-Ile-Pro-Leu-NH(CH2)4CO-Glu-Val-Asn-Sta-Val-Ala-Glu-DPro-Lys(Chol)-NH2 x TFA] was tested. Which “IC50, cellular Aβ-lowering assay” value did it give?
Answer: 0.84 nM

From US10683329B2, “Dual-site BACE1 inhibitors” (priority 2014, dated 2020)
